Read-outs that look alike come from different tables or passages of the source. One block for each molecule: values may come before it.
Experiments:
[1] = target: commercially available anti-Stat3 antibody (Abcam, Cambridge, Mass.); assay: ELISA, antibody coated at 1 µg/mL, secondary antibody 1:5,000, Experiment 3
[2] = target: TNF-alpha (U937 cytotoxicity assay of Example 16) (UniProt P01375 77-233, limits assumed); assay: cell-based or functional assay
[3] = target: T1, active human TNF-α full length protein (human, UniProt P01375 77-233)
T1 sequence (P01375 77-233 limits assumed): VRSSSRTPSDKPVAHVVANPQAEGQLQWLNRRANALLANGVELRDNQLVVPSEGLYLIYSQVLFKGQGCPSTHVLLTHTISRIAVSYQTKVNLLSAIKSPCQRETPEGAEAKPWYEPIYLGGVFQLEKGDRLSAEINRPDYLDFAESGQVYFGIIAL

[4] = target: T1, active human TNF-α full length protein; remark: listed apart in the source
[5] = target: T1, active human TNF-α full length protein; remark: listed apart in the source
[6] = target: T1, active human TNF-α full length protein; remark: listed apart in the source
[7] = target: T1, active human TNF-α full length protein; remark: listed apart in the source
[8] = target: T1, active human TNF-α full length protein; remark: listed apart in the source
[9] = target: T1, active human TNF-α full length protein; assay: ELISA, wells coated with 0.5 µg/mL TNF-α, sdAb at 1 µg/mL
[10] = target: T1, active human TNF-α full length protein; remark: listed apart in the source
[11] = target: T1, active human TNF-α full length protein; remark: listed apart in the source
[12] = target: T1, active human TNF-α full length protein; remark: listed apart in the source
[13] = target: T1, active human TNF-α full length protein; remark: listed apart in the source
[14] = target: T1, active human TNF-α full length protein; remark: listed apart in the source
[15] = target: T1, active human TNF-α full length protein; remark: listed apart in the source
[16] = target: T2, STAT 2 protein (UniProt P52630 1-851, limits assumed); assay: sandwich ELISA, STAT protein coated at 0.5 µg/mL
T2 sequence (P52630 whole entry): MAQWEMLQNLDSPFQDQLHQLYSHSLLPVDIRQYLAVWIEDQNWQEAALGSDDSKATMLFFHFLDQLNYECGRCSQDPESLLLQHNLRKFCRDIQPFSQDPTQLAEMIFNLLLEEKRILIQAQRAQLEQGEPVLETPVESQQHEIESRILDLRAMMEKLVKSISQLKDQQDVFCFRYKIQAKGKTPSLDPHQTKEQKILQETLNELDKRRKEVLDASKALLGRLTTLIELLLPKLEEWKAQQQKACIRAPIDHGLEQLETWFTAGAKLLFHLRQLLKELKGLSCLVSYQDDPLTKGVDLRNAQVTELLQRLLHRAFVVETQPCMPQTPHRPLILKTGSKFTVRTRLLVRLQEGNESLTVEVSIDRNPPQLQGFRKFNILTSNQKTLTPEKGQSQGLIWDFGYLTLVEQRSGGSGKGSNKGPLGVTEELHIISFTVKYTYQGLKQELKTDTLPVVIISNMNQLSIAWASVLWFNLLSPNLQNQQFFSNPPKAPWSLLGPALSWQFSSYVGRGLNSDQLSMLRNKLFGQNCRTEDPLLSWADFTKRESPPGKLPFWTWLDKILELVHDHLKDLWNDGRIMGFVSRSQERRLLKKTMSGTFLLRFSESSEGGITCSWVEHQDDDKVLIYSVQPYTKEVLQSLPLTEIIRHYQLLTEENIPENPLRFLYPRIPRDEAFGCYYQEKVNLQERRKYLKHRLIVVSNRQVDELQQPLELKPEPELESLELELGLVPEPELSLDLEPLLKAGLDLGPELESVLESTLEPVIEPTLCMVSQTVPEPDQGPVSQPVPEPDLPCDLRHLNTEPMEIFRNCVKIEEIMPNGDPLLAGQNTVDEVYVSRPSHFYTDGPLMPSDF

[17] = target: T3, STAT 1 protein (UniProt P42224 1-750, limits assumed); assay: sandwich ELISA, STAT protein coated at 0.5 µg/mL
T3 sequence (looked up): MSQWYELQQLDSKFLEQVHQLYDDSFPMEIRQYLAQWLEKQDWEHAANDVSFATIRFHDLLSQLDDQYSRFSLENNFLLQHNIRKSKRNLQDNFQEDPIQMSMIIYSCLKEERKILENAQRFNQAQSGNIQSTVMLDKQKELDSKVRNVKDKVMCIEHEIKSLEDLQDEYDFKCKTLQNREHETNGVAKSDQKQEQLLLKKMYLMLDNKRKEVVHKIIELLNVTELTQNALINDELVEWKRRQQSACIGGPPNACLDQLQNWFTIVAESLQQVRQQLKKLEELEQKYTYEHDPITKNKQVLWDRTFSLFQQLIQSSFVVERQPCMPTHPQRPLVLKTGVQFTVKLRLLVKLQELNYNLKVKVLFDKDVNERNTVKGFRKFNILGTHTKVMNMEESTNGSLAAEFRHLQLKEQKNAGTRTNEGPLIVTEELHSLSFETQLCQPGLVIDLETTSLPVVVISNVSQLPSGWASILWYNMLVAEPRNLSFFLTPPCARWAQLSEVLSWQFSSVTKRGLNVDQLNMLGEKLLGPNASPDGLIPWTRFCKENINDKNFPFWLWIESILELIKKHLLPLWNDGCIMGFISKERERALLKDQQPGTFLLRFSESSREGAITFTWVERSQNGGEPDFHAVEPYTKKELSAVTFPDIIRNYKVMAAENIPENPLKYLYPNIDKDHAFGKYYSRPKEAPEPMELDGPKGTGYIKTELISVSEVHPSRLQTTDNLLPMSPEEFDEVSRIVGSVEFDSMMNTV

[18] = target: T4, STAT 5a protein (UniProt P42229 1-794, limits assumed); assay: sandwich ELISA, STAT protein coated at 0.5 µg/mL
T4 sequence (looked up): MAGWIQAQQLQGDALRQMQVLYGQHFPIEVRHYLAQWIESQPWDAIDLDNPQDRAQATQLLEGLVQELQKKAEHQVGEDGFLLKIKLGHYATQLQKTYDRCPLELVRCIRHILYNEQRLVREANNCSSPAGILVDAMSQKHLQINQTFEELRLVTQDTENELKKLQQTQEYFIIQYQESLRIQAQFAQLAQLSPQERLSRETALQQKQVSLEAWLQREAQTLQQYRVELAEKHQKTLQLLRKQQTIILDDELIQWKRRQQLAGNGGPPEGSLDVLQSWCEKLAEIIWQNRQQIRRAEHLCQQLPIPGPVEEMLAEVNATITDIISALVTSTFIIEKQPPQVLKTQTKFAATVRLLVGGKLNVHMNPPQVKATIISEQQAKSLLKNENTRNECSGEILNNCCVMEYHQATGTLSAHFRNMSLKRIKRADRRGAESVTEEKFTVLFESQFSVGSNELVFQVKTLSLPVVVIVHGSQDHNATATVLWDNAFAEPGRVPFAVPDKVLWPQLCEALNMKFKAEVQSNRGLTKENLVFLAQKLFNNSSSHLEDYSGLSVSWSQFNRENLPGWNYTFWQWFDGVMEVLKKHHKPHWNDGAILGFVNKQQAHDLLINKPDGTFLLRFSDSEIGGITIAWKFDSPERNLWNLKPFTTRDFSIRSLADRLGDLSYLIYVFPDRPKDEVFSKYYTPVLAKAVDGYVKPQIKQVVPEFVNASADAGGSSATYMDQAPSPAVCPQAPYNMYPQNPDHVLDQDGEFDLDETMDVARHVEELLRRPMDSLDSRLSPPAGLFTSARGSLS

[19] = target: T2, STAT 2 protein; assay: sandwich ELISA, STAT protein coated at 0.5 µg/mL; remark: listed apart in the source
[20] = target: T3, STAT 1 protein; assay: sandwich ELISA, STAT protein coated at 0.5 µg/mL; remark: listed apart in the source
[21] = target: T4, STAT 5a protein; assay: sandwich ELISA, STAT protein coated at 0.5 µg/mL; remark: listed apart in the source
[22] = target: T2, STAT 2 protein; assay: sandwich ELISA, STAT protein coated at 0.5 µg/mL; remark: listed apart in the source
[23] = target: T3, STAT 1 protein; assay: sandwich ELISA, STAT protein coated at 0.5 µg/mL; remark: listed apart in the source
[24] = target: T4, STAT 5a protein; assay: sandwich ELISA, STAT protein coated at 0.5 µg/mL; remark: listed apart in the source
[25] = target: T2, STAT 2 protein; assay: sandwich ELISA, STAT protein coated at 0.5 µg/mL; remark: listed apart in the source
[26] = target: T3, STAT 1 protein; assay: sandwich ELISA, STAT protein coated at 0.5 µg/mL; remark: listed apart in the source
[27] = target: T4, STAT 5a protein; assay: sandwich ELISA, STAT protein coated at 0.5 µg/mL; remark: listed apart in the source
[28] = target: Human recombinant TNF-α (Sigma-Aldrich) (human, UniProt P01375 77-233); assay: cell-based or functional assay
Human recombinant TNF-α (Sigma-Aldrich), sequence (P01375 77-233 limits assumed): as the sequence (P01375 77-233 limits assumed) above

TNF-alpha (U937 cytotoxicity assay of Example 16), sequence (P01375 77-233 limits assumed): as above

Molecule: his-probe (H-3) biotin labeled antibody
OD450 [1]: 0.018 OD450

B1: anti-TNF-alpha VHH69 (SEQ ID NO:46) sdAb (VHH)
VHH: EVQLVESGGGSVLAGGSLRLSCVASGFTSRYNYMAWFRQAPGKEREGVATIGTASGSADYYGSVKDRFTISQDNAKNTVYLQMNSLKPEDTAMYYCAARTYGTISLTPSDYRYWGQGTLVTVSS
IC50 (inhibition of TNF-alpha cytotoxicity against U937 cells, ATP luminescence) [2]: > 208 µg/mL

Signal/Noise Ratio [3]: 1.6
Signal/Noise Ratio [4]: 1.6
Signal/Noise Ratio [5]: 5.9
Signal/Noise Ratio [6]: 1.5
Signal/Noise Ratio [7]: 2.1
Signal/Noise Ratio [8]: 1.9
OD450 [9]: 1.95 OD450
Signal/Noise Ratio [10]: 1.3
Signal/Noise Ratio [11]: 3.2
Signal/Noise Ratio [12]: 8
Signal/Noise Ratio [13]: 2.4
Signal/Noise Ratio [14]: 7.5
Signal/Noise Ratio [15]: 3.7
B2: anti-TNF-alpha VHH69 (SEQ ID NO:46) sdAb (VHH)
VHH: B1 VHH

B3: anti-TNF-alpha VHH62 (SEQ ID NO:47) sdAb (VHH)
VHH: QVQLVESGGGPVQAGETLRLSCTASGFTFAEADMGWYRQAPGHECELVSTITTEGITSEASSYYADSVRGRFTISRDNAKNMVYLQMNSLKPEDTAVYYCAPDPYAYSTYSDYCSWAQGTQGTLVTVSS
IC50 (inhibition of TNF-alpha cytotoxicity against U937 cells, ATP luminescence) [2]: ~714 µg/mL

Signal/Noise Ratio [3]: 1.1
Signal/Noise Ratio [4]: 1.1
Signal/Noise Ratio [5]: 1.7
Signal/Noise Ratio [6]: 1.1
Signal/Noise Ratio [7]: 1.4
Signal/Noise Ratio [8]: 1.3
OD450 [9]: 0.005 OD450
Signal/Noise Ratio [10]: 0.9
Signal/Noise Ratio [11]: 1.5
Signal/Noise Ratio [12]: 2
Signal/Noise Ratio [13]: 1.4
Signal/Noise Ratio [14]: 1.9
Signal/Noise Ratio [15]: 1.5
B4: anti-TNF-alpha VHH62 (SEQ ID NO:47) sdAb (VHH)
VHH: B3 VHH

Mean OD450 [16]: 0.007 OD450
Mean OD450 [17]: 0.024 OD450
Mean OD450 [18]: 0.017 OD450
Mean OD450 [19]: 0.015 OD450
Mean OD450 [20]: 0.056 OD450
Mean OD450 [21]: 0 OD450
Mean OD450 [22]: 0 OD450
Mean OD450 [23]: 0.015 OD450
Mean OD450 [24]: 0 OD450
Mean OD450 [25]: 0.076 OD450
Mean OD450 [26]: 0.122 OD450
Mean OD450 [27]: 0.158 OD450
B5: STAT5-31 (SEQ ID NO:83) sdAb (VHH)
VHH: EVQLVESGGGSVQTGGSLRLSCAASGFPFSSHVMGWFRQAPGKKREGVAAISVDSGSTWYADSVKGRFTISLDSAKNTLYLQMNSLKPEDTAMYYCATRRGVILTLSPETYDYWGQGTQVTVSS

B6: anti-TNF-alpha VHH66 (SEQ ID NO:45) sdAb (VHH)
VHH: HVQLVESGGGSVEAGGSLRLSCAASGFRYAAYCMGWFRQADGKEREGVATIDIDGLTTHADSVKGRFTISRDNAKNTLSLQMNDLKPEDTAMYYCAADRDRCGSIWTYAYKYRGQGTLVTVSS
EC50 (inhibition of TNF-α cytotoxicity on L929 cells, Assay 1, Batch A) [28]: 2.9 µg/mL
EC50 (inhibition of TNF-α cytotoxicity on L929 cells, Assay 1, Batch B) [28]: 1.2 µg/mL
EC50 (inhibition of TNF-α cytotoxicity on L929 cells, Assay 1, Batch C) [28]: 2.3 µg/mL
EC50 (inhibition of TNF-α cytotoxicity on L929 cells, Assay 2, Batch B) [28]: 4.5 µg/mL
EC50 (inhibition of TNF-α cytotoxicity on L929 cells, Assay 2, Batch C) [28]: 6.2 µg/mL

OD450 [9]: 3.86 OD450
B7: anti-TNF-alpha VHH66 (SEQ ID NO:45) sdAb (VHH)
VHH: B6 VHH

Reference: patent US20170327598A1 (published 2017)
